{
  "source": "patent US8722052B2",
  "about": "“Vaccinia virus protein A46 peptide and use thereof” (priority 2008, dated 2014)",
  "target": "T1, CD4-TLR4 (UniProt O00206+P06332)",
  "T1 construct": "forced dimerisation of TLR4 TIR domains in the absence of LPS (by overexpressing the fusion protein CD4-TLR4); CD4 (fusion partner); expressed in transfected cells; host or cells: HEK293_TLR4, transiently transfected with 50 or 100 ng CD4/TLR4-encoding plasmid",
  "T1 sequence (P06332+O00206 with tags, fused parts or gaps)": "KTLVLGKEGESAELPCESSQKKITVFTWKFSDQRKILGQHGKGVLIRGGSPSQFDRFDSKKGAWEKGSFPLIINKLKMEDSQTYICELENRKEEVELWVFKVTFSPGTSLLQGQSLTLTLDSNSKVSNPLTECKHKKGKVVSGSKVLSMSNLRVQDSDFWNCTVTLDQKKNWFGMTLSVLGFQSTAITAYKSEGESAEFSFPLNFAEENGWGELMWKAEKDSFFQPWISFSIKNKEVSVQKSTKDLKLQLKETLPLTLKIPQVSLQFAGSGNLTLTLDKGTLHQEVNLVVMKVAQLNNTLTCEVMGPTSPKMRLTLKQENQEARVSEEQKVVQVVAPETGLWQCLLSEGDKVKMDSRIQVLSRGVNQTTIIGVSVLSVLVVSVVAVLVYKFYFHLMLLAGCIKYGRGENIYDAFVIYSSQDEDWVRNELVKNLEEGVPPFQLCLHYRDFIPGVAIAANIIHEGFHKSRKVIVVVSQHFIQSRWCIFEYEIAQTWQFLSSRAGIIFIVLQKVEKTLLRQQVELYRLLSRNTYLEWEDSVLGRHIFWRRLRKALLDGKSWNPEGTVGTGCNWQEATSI",
  "test": "ligand-independent NFκB activation by overexpressed CD4-TLR4 in HEK293_TLR4 cells",
  "format": "cell-based",
  "details": "50 or 100 ng CD4/TLR4 plasmid, peptide 5 or 25 μM 2 or 9 hours after transfection",
  "protocol": "FIGS. 24A and B are bar charts showing the effect of A464 on ligand-independent TLR4 signalling in HEK293 cells. HEK293_TLR4 cells were seeded in 96 well plate (1.5×10^5 cells/ml) 24 hours before transfection with NFκB-luciferase and TK-Renilla reporter gene plasmids. NFκB activation was stimulated by transfecting either 50 or 100 ng of CD4/TLR4-encoding plasmid or by stimulating with 10 ng/ml LPS. The total amount of plasmid DNA transfected into the cells was made up to 230ng by adding pcDNA. A464 (SEQ ID NO. 20) was added to the cells at a concentration of 5 or 25 μM 2 hours (A) or 9 hours (B) after the transfection or LPS-stimulation. Cells were harvested and assayed for NFκB activation by reporter gene assay 24 hours post-transfection. No peptides were added to the control wells (black bars). Data is representative of two experiments, each performed in triplicate and is expressed as mean fold induction±s.d. relative to control levels;\nHEK293 cells were transfected using GeneJuice® a proprietary non-toxic transfection reagent. 200 μl/well cells at a density of 1×10^5 cells/ml were seeded the day before transfection. 0.8 μl of GeneJuice was mixed with 9.2 μl of serum-free DMEM (SFM) per transfection and incubated for 5 min at room temperature before adding the appropriate amount of the plasmid DNA. […] Luciferase activity was analysed using a luminometer. […]",
  "data": [
    {"sequence": "KYSFKLILAEYRRRRRRRRR [Peptide A464]", "values": [
      {"measurement": "inhibition of NFκB activated by forced dimerisation of TLR4 TIR domains (CD4-TLR4)", "value": "insensitive to inhibition"}
    ]}
  ]
}
